Measurements: US20140148387A1

Key:
[1] = molecular target: T1, activine type IIB receptor (ActRIIB) extracellular domain; test: SPR, BIAcore 2000; analyte Ala-BMP-2, ligand ActRIIBecd; redissolved freeze-dried preparation at start of test
T1 sequence (Q13705 19-137, species assumed, looked up): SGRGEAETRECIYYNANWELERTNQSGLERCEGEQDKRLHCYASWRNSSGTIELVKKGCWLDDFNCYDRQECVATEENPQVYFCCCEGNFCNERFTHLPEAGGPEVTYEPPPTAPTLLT

[2] = molecular target: T1, activine type IIB receptor (ActRIIB) extracellular domain; test: SPR, BIAcore 2000; analyte Ala-BMP-2, ligand ActRIIBecd; freeze-dried preparation preserved at 5 ± 3° C. for 3 months
[3] = molecular target: T1, activine type IIB receptor (ActRIIB) extracellular domain; test: SPR, BIAcore 2000; analyte Ala-BMP-2, ligand ActRIIBecd; freeze-dried preparation preserved at 25 ± 2° C., relative humidity 60 ± 5%, for 3 months
[4] = molecular target: T1, activine type IIB receptor (ActRIIB) extracellular domain; test: SPR, BIAcore 2000; analyte Ala-BMP-2, ligand ActRIIBecd; freeze-dried preparation preserved at 40 ± 2° C., relative humidity 75 ± 5%, for 3 months

B1: active type human bone morphogenetic protein-2 homodimer added with an alanine residue to the N-terminus (ligand)
chain: AQAKHKQRKRLKSSCKRHPLYVDFSDVGWNDWIVAPPGYHAFYCHGECPFPLADHLNSTNHAIVQTLVNSVNSKIPKACCVPTELSAISMLYLDENEKVVLKNYQDMVVEGCGCR
- Biacore assay, relative value to provisional reference substance of Ala-BMP-2 as 100% [1]: 98.2%
- Biacore assay, relative value to provisional reference substance of Ala-BMP-2 as 100% [2]: 100%
- Biacore assay, relative value to provisional reference substance of Ala-BMP-2 as 100% [3]: 98.9%
- Biacore assay, relative value to provisional reference substance of Ala-BMP-2 as 100% [4]: 97.7%
